From the supplement of paper PMC9732359
± gives the uncertainty stated by the source.

Assay: protein stability index of a GFP-peptide fusion (yeast GPS) (PSI 1-4); higher = more stable; sorted into four equal gates, so the index is relative within each strain
In short: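 Peptides tiling yeast proteins in 17-residue segments were fused downstream of GFP, with Cherry expressed from the same plasmid. As a pooled library in yeast, mid-log cultures grown in leucine-free medium were sorted into four equal gates by GFP/Cherry fluorescence ratio. Gate plasmids were PCR-amplified and Illumina-sequenced, and barcodes linked reads to strains. Each peptide received a protein stability index equal to the sum of each gate's read frequency times its gate number.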

Sequence	protein stability index (doa10∆)	protein stability index (pdr5∆)	protein stability index (san1∆)	protein stability index (ubr1∆)
SNDERIVKRLYEYGAVS [BRR2]	2.71 ± 0.076	2.97 ± 0.07	3.14 ± 0.056	3.14 ± 0.049
PMYKELWINYIKELLNI [POP4]	1.67 ± 0.19	1.08 ± 0.11	–	–
YTKETYQSRGIDAMKAV [RPN6]	2.59 ± 0.069	2.86 ± 0.072	2.83 ± 0.064	2.39 ± 0.047
KKEANLFPEQQTKEIKT [RPL6B]	2.62 ± 0.08	3.25 ± 0.074	2.56 ± 0.082	3.23 ± 0.076
SSEQFNVWDWNNWTSAT [GAL11]	3.08 ± 0.1	3.17 ± 0.095	3.14 ± 0.067	3.1 ± 0.083
DSNKTLLHNHLKSIESL [SMC2]	1.87 ± 0.089	2.44 ± 0.095	1.49 ± 0.22	2.78 ± 0.11
SQVKDSVTETESISQTP [SRP68]	2.92 ± 0.12	3.02 ± 0.11	3.22 ± 0.21	2.93 ± 0.084
SRTAADILLRLCVLWDD [YCG1]	2.23 ± 0.24	–	–	3 ± 0.24
SESVGAFLSFLAYRNYW [YJL039C/NUP192]	1.69 ± 0.073	1.97 ± 0.11	1.72 ± 0.12	1.84 ± 0.084
LVLADAFDIELSEFGIK [YCS4]	2.92 ± 0.052	3.06 ± 0.057	2.9 ± 0.068	2.89 ± 0.046
KRAFTKKVASANATAAE [RPL16A]	2.73 ± 0.068	2.69 ± 0.06	2.82 ± 0.04	2.55 ± 0.037
IEHNLRVISEYYSRITL [RPN5]	2.63 ± 0.087	2.54 ± 0.078	2.41 ± 0.063	2.46 ± 0.073
NKDSIEECGRTIHRSFT [CSN12]	3.21 ± 0.067	3.13 ± 0.066	3.28 ± 0.043	3.12 ± 0.046
GKMNNEVSTSTSMTGDA [SWI3]	3.49 ± 0.076	3.3 ± 0.069	3.2 ± 0.054	3.15 ± 0.053
VLSSVREPDFWVIRKQR [MED6]	3.52 ± 0.12	3.44 ± 0.1	3.54 ± 0.12	3.11 ± 0.12
RLKEKGSRVLIFSQMSR [ISW2]	1.67 ± 0.056	2.19 ± 0.066	1.53 ± 0.11	2.06 ± 0.057
HEVVQDDSFSLLRIQML [PCI8]	2.7 ± 0.049	2.96 ± 0.063	2.74 ± 0.047	2.84 ± 0.036
KVLKSGSGVDSSKLQLT [RRP42]	2.94 ± 0.14	2.94 ± 0.1	3.16 ± 0.074	3.29 ± 0.1
SKLRNNIRSQLLSENRS [SRP54]	2.8 ± 0.069	2.58 ± 0.094	2.67 ± 0.06	2.85 ± 0.049
YMEKGTQLDDLQHELMI [YML103C/NUP188]	2.62 ± 0.058	2.31 ± 0.059	2.19 ± 0.063	2.25 ± 0.035
KYIVKASSGPRYIVGVR [RPT4]	1.87 ± 0.096	2.66 ± 0.13	3.4 ± 0.089	1.89 ± 0.075
FLDYTTDNVSMYPSPTG [PRP8]	2.85 ± 0.056	2.85 ± 0.06	2.7 ± 0.06	2.95 ± 0.057
SGITDPYEMYKYVHVSE [FAS2]	2.33 ± 0.072	2.63 ± 0.074	2.48 ± 0.07	2.4 ± 0.069
NKSFIVDQGQIYRDRST [ITC1]	3.1 ± 0.11	3.35 ± 0.12	3.32 ± 0.064	3.32 ± 0.052
LSNPSNQNICTSVTRRS [GRR1]	2.42 ± 0.083	2.49 ± 0.052	2.62 ± 0.055	2.53 ± 0.039
VESPDKNVRFRVLQLLA [YCG1]	1.09 ± 0.098	1.4 ± 0.12	1.18 ± 0.13	1.65 ± 0.13
SKEDTLRLCLDIVPYFL [RPN1]	1.92 ± 0.05	1.92 ± 0.033	1.58 ± 0.081	2.12 ± 0.057
AMREVNDEKRVKEEYDI [YIL149C/MLP2]	2.62 ± 0.25	2.57 ± 0.17	–	–

Sequence	protein stability index (doa10∆)	protein stability index (pdr5∆)	protein stability index (san1∆)	protein stability index (ubr1∆)
IVVVIEIITSLSMRFQR [SRB8]	2.5 ± 0.12	2.71 ± 0.092	2.18 ± 0.084	2.06 ± 0.087
TKYERARILGTRALQIS [RPO26]	–	1.36 ± 0.24	–	1.21 ± 0.13
PRFNRENKVSPADAAKK [RPS26A]	3.45 ± 0.18	2.73 ± 0.17	2.98 ± 0.075	2.89 ± 0.12
GDANNRWDKEEYQSLMS [SMC1]	3.36 ± 0.21	3.03 ± 0.29	3.05 ± 0.28	3.21 ± 0.073
VRSFSKALDELKPEIEK [LRP1]	3.39 ± 0.088	3.39 ± 0.074	3.31 ± 0.052	3.22 ± 0.064
APLKALVQEQVREFQRR [BRR2]	1.26 ± 0.1	1.24 ± 0.092	1.3 ± 0.13	1.26 ± 0.13
ERPPYILNSYGVLKPDI [SIR2]	2.83 ± 0.078	3.12 ± 0.093	3.15 ± 0.053	3.15 ± 0.061
PQGRQSTTFADCPVVPA [RPC40]	2.89 ± 0.067	2.92 ± 0.078	2.49 ± 0.1	2.87 ± 0.059
FVKNIRMLSFEDISKAT [RPN9]	2.66 ± 0.063	1.86 ± 0.076	1.91 ± 0.078	1.93 ± 0.053
SAVIIDEFKDITKEVTQ [YIL149C/MLP2]	2.76 ± 0.088	2.89 ± 0.059	2.39 ± 0.06	2.8 ± 0.068
RMLLNLCKSATTKMWPT [BRR2]	1.47 ± 0.068	1.79 ± 0.1	1.7 ± 0.12	1.99 ± 0.069
EFGTYGKYVIAGHVSGV [RPN14]	1.57 ± 0.14	1.57 ± 0.22	1.25 ± 0.3	–
ESTSSTEEVEALLQRLK [MTW1]	–	–	–	3.23 ± 0.19
LGDKELWPVAIGLIALS [YJR042W/NUP85]	1.57 ± 0.17	1.65 ± 0.15	1.64 ± 0.27	1.73 ± 0.16
RYADAGNIDTKNNILGS [RRP43]	3.31 ± 0.062	3.06 ± 0.05	3.12 ± 0.039	3.04 ± 0.049
AKEVKVLYHTSGAITFV [PRP8]	2.12 ± 0.055	2.5 ± 0.064	2.58 ± 0.055	2.72 ± 0.068
DVKSSLSKVFSDVLFEF [YJL039C/NUP192]	2.82 ± 0.12	3.28 ± 0.071	2.58 ± 0.1	2.89 ± 0.053
ETQFKLSRPYKALKTNI [CDC53]	2.19 ± 0.045	2.39 ± 0.051	2.23 ± 0.05	2.45 ± 0.052
QQLRRALPDVVVKGLPD [RPO31]	2.19 ± 0.069	2.31 ± 0.057	1.93 ± 0.078	2.36 ± 0.083
VIAHLTVEALDFREKAL [RET1]	2.79 ± 0.11	2 ± 0.058	2.12 ± 0.1	2.57 ± 0.062
NKLLGNVTIAQGGVLPN [HTA1]	1.82 ± 0.053	1.66 ± 0.041	1.72 ± 0.058	1.61 ± 0.033
TEPDKPAFSFNSSVGNK [YJL041W/NSP1]	3.14 ± 0.053	3.3 ± 0.04	3.09 ± 0.033	3.242 ± 0.029
NTSIAQFDIQSPLYMDT [YML103C/NUP188]	2.99 ± 0.08	2.89 ± 0.049	2.08 ± 0.081	3.01 ± 0.058
YQELAYRATSLDPSLRA [YML031W/NDC1]	2.8 ± 0.049	2.89 ± 0.041	2.83 ± 0.036	2.61 ± 0.031
RDMTYSAPIYVDIEYTR [RET1]	2.17 ± 0.092	1.98 ± 0.083	1.79 ± 0.14	1.81 ± 0.069
GQLLKDHLIIEPEEEKS [ARP9]	2.15 ± 0.084	1.77 ± 0.066	1.6 ± 0.096	1.71 ± 0.038
HHELVPKHIRLSSDEKR [RPB5]	2.9 ± 0.12	3.54 ± 0.12	2.82 ± 0.18	3.16 ± 0.073
